Laboratory results published in patent US20230212319A1, “NOVEL ANTIGEN BINDING DOMAINS AND SYNTHETIC ANTIGEN RECEPTORS INCORPORATING THE SAME” (University of Southern California, priority 2020, published 2023).

Legend:
[1] = test system: RAJI cells; assay: JNG assay, co-culture with RAJI cells; assay type: cell-based; conditions: JNG cells expressing construct, co-culture with Raji
Summary of the method: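 Jurkat NFAT-GFP (JNG) cells stably transduced with SARs by lentivirus, with drug selection where the construct carried a resistance gene, then co-cultured with target cells at E:T ~1:2 for ~4–18 h. % GFP-positive cells measured by FACS against parental JNG; +/- to 5+ correspond to ~5–50% GFP-positive.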

[2] = test system: Nalm6 cells; assay: JNG assay, co-culture with Nalm6 cells; assay type: cell-based; conditions: co-culture with Nalm6
Method: Cellular supernatant is collected and assayed for the induction of cytokines (e.g., IL2).
JNG (Jurkat cells expressing EGFP under an NFAT promoter) were infected with lentiviral vectors encoding different single chain and multi-chain SARs by spinfection in the presence of 8 µg/ml of Polybrene® (Sigma, Catalog no. H9268). The Jurkat-NFAT-GFP cells are engineered in such a way that the IL-2 promoter, which carries NFAT binding sites, is cloned upstream of the GFP gene. These cells have been used to study signaling via TCR and CAR. The different SARs were stably expressed in Jurkat NFAT-GFP cells by lentiviral mediated gene transfer, followed by selection with puromycin or blasticidin. No drug selection was used in case the construct lacked an antibiotic resistance gene. The SAR-expressing Jurkat-NFAT-GFP cells were cocultured with the target cells at E:T ratio of approximately 1:2 for approximately 4 hours to 18 hours. When the interaction between SIRs and their target antigen results in activation of the NFAT pathway, GFP expression is induced. […] GFP expression was monitored by FACS analysis. The Jurkat-NFAT-GFP (parental) cells were used as control. The structure of different constructs can be determined based on their names. For example, the construct CD8SP-CD19-hu-mROO5-1-vL-[hTCRa-C SDVP]-F-F2A-Spe-IgHSP-Apa-CD20-vHH-2HCD25-G4S-CDl9-hu-mROO5-1-vH-Mlu-[hTCRb-KACIAH]-F-P2A-PAC has the following modules from 5′ to 3′ direction: a CD8 signal peptide (CD8SP), the CD19 targeting hu-mROO5-1 vL fragment (CD19-hu-mROO5-1), Xho1 cloning site, human TCRa constant chain containing CSDVP mutations (hTCRa-CSDVP), Furine cleavage site (F), F2A ribosomal skip sequence (F2A), SpeI site, human IgH signal peptide (IgHSP), Apa I restriction enzyme site, camelid CD20-2HCD25-VHH module targeting CD20, BamHI restriction enzyme site, Glycinex4-serine linker (G4S), BstI restriction enzyme site, CD19-hu-mROO5-1-vH fragment targeting CD19, Mlu I restriction enzyme site, human TCRb constant chain containing KACIAH mutations ([hTCRb-KACIAH]), Furine cleavage site (F), P2A ribosomal skip sequence and Puromycin resistance gene (PAC). The sequence of the other constructs in the table can be similarly determined from their names and by referring to the different Tables of this disclosure that provide the names and SEQ ID NO of the different modules. Alternatively, the composition and modular architecture of the different SAR constructs can be determined from their sequences by bioinformatics tools, including using nucleic acid and amino acids homology searches. A SAR is considered positive in the assay in case the SAR expressing Jurkat-NFAT-GFP cells show greater % GFP positive cells when cultured with the target cell line as compared to parental Jurkat-NFAT-GFP cells. The signs +/-, +, 2+ etc. after the name of the cell lines indicate the relative degree of positivity on the Jurkat-NFAT-GFP assay as measured by the % GFP positive cells after culture of the SAR expressing Jurkat-NFAT-GFP cells with that cell line above the % GFP cells observed in parental Jurkat NFAT-GFP cells serving as controls. In general, the number +/-, +, 2+, 3+, 4+, 5+ refer to approximately 5%, 10%, 20%, 30%, 40% and 50% GFP positive cells. The % of GFP induction in the above assay is dependent not only the relative strength of the SAR but also, among other factors, on the relative level of expression of the SAR in the JNG cells and the relative level of expression of the target antigen in the target cell line. To control for the difference in gene transduction efficiency of the different SAR constructs, the experiment was conducted with JNG cells transduced with SAR constructs co-expressing a drug resistance gene (e.g., puromycin or PAC) followed by drug selection to generate a stable population of SAR-expressing cells. […]

| Molecule | NFAT-GFP ASSAY: Raji [1] | NFAT-GFP ASSAY: Nalm6 [2] |
| --- | --- | --- |
| 22020 (protein) MALPVTALLLPLALLLHAARPQLQLQESGPGLVKPSETLSLTCTVSGDSISSGDYYWGWIRQPPGKGLEWIGHIYYSGVTYYNPSLKSRVTISVDTSRNQFSLKLSSVTAADTAVYYCTREDSSNWRSRGQGTLVTVSSLDSGGGGSFEQLQLQESGPGLVKPSETLSLTCTVSGGSISSGDYYWGWIRQPPGKGLEWIGHIYYSGATYYNPSLKSRVTISVDTSRNQFSLKLSSVTAADTAVYYCTRDDSSNWRSRGQGTLVTVSSTRIQNPDPAVYQLRDSKSSDKSVCLFTDFDSQTNVSQSKDSDVYITDKCVLDMRSMDFKSNSAVAWSNKSDFACANAFNNSIIPEDTFFPSPESSCDVKLVEKSFETDTNLNFQNLSVIGFRILLLKVAGFNLLMTLRLWSSRAKRSGSGVKQTLNFDLLKLAGDVESNPGPSRGHMTEYKPTVRLATRDDVPRAVRTLAAAFADYPATRHTVDPDRHIERVTELQELFLTRVGLDIGKVWVADDGAAVAVWTTPESVEAGAVFAEIGPRMAELSGSRLAAQQQMEGLLAPHRPKEPAWFLATVGVSPDHQGKGLGSAVVLPGVEAAERAGVPAFLETSAPRNLPFYERLGFTVTADVEVPEGPRTWCMTRKPGA | +/- (refer to approximately 5%, 10%, 20%, 30%, 40% and 50% GFP positive cells) | +/- (refer to approximately 5%, 10%, 20%, 30%, 40% and 50% GFP positive cells) |
| 22091 (protein) MALPVTALLLPLALLLHAARPQLQLQESGPGLVKPSETLSLTCTVSGDSISSGDYYWGWIRQPPGKGLEWIGHIYYSGVTYYNPSLKSRVTISVDTSRNQFSLKLSSVTAADTAVYYCTREDSSNWRSRGQGTLVTVSSLEDLKNVFPPEVAVFEPSKAEIAHTQKATLVCLATGFYPDHVELSWWVNGKEVHSGVCTDPQPLKEQPALNDSRYCLSSRLRVSATFWQNPRNHFRCQVQFYGLSENDEWTQDRAKPVTQIVSAEAWGRADCGITSASYHQGVLSATILYEILLGKATLYAVLVSALVLMAMVKRKDSRGRAKRSGSGATNFSLLKQAGDVEENPGPTSMDWIWRILFLVGAATGAHSFEVQLLESGGGLIQPGGSLRLSCAASGFTFSSHAMTWVRQAPGKGLEWVSAISGSGDYTHYADSVKGRFTISRDNSKNTVYLQMNSLRAEDSAVYYCAKDEDGGSLLGHRGQGTLVTVSSTRIQNPDPAVYQLRDSKSSDKSVCLFTDFDSQTNVSQSKDSDVYITDKCVLDMRSMDFKSNSAVAWSNKSDFACANAFNNSIIPEDTFFPSPESSCDVKLVEKSFETDTNLNFQNLSVIGFRILLLKVAGFNLLMTLRLWSSRAKRSGSGVKQTLNFDLLKLAGDVESNPGPSRGHMTEYKPTVRLATRDDVPRAVRTLAAAFADYPATRHTVDPDRHIERVTELQELFLTRVGLDIGKVWVADDGAAVAVWTTPESVEAGAVFAEIGPRMAELSGSRLAAQQQMEGLLAPHRPKEPAWFLATVGVSPDHQGKGLGSAVVLPGVEAAERAGVPAFLETSAPRNLPFYERLGFTVTADVEVPEGPRTWCMTRKPGA | + (refer to approximately 5%, 10%, 20%, 30%, 40% and 50% GFP positive cells) | +/- (refer to approximately 5%, 10%, 20%, 30%, 40% and 50% GFP positive cells) |
| 22162 (protein) MALPVTALLLPLALLLHAARPDIQMTQSPSSLSASVGDRVTITCKASDHINNWLAWYQQKPGQAPKLLIYGATTLETGVPSRFSGSGSGTDYTLTISSLQPEDFATYYCQQSWNTPWTFGQGTKLEIKRLEDLKNVFPPEVAVFEPSEAEISHTQKATLVCLATGFYPDHVELSWWVNGKEVHSGVCTDPQPLKEQPALNDSRYCLSSRLRVSATFWQNPRNHFRCQVQFYGLSENDEWTQDRAKPVTQIVSAEAWGRADCGFTSESYQQGVLSATILYEILLGKATLYAVLVSALVLMAMVKRKDSRGRAKRSGSGATNFSLLKQAGDVEENPGPTSATMDWIWRILFLVGAATGAHSGPEVQLLESGGGLVQPGGSLRLSCAASGSIASIHAMGWFRQAPGKEREFVAVITWSGGITYYADSVKGRFTISRDNSKNTVYLQMNSLRPEDTALYYCAGDKHQSSWYDYWGQGTLVTVSSGSGGGGSGGGGSGGGGSFEQVQLQQPGAELVKPGASVKMSCKASGYAFSSYWINWMKQKPGQGLEWIGQIYPGDGDTNYNGKFKGRATLTADTSSSTAYMQLSSLTSEDSAVYFCARSITTVVGCAMDYWGQGTSVTVSSTRIQNPDPAVYQLRDSKSSDKSVCLFTDFDSQTNVSQSKDSDVYITDKCVLDMRSMDFKSNSAVAWSNKSDFACANAFNNSIIPEDTFFPSPESSCDVKLVEKSFETDTNLNFQNLSVIGFRILLLKVAGFNLLMTLRLWSSRAKRSGSGVKQTLNFDLLKLAGDVESNPGPSRGHMTEYKPTVRLATRDDVPRAVRTLAAAFADYPATRHTVDPDRHIERVTELQELFLTRVGLDIGKVWVADDGAAVAVWTTPESVEAGAVFAEIGPRMAELSGSRLAAQQQMEGLLAPHRPKEPAWFLATVGVSPDHQGKGLGSAVVLPGVEAAERAGVPAFLETSAPRNLPFYERLGFTVTADVEVPEGPRTWCMTRKPGA |  | 5+ (refer to approximately 5%, 10%, 20%, 30%, 40% and 50% GFP positive cells) |
| 22096 (protein) MALPVTALLLPLALLLHAARPQLQLQESGPGLVKPSETLSLTCTVSGDSISSGDYYWGWIRQPPGKGLEWIGHIYYSGVTYYNPSLKSRVTISVDTSRNQFSLKLSSVTAADTAVYYCTREDSSNWRSRGQGTLVTVSSLEGQPKANPTVTLFPPSSEELQANKATLVCLISDFYPGAVTVAWKADGSPVKAGVETTKPSKQSNNKYAASSYLSLTPEQWKSHRSYSCQVTHEGSTVEKTVAPTECSPIKTDVITMDPKDNCSKDANDTLLLQLTNTSAYYMYLLLLLKSVVYFAIITCCLLRRTAFCCNGEKSRAKRSGSGATNFSLLKQAGDVEENPGPTSMDWIWRILFLVGAATGAHSFEVQLLESGGGLIQPGGSLRLSCAASGFTFSSHAMTWVRQAPGKGLEWVSAISGSGDYTHYADSVKGRFTISRDNSKNTVYLQMNSLRAEDSAVYYCAKDEDGGSLLGHRGQGTLVTVSSTRASTKGPSVFPLAPSSKSTSGGTAALGCLVKDYFPEPVTVSWNSGALTSGVHTFPAVLQSSGLYSLSSVVTVPSSSLGTQTYICNVNHKPSNTKVDKRVEPKSCEVKTDSTDHVKPKETENTKQPSKSCHKPKAIVHTEKVNMMSLTVLGLRMLFAKTVAVNFLLTAKLFFLRAKRSGSGVKQTLNFDLLKLAGDVESNPGPSRGHMTEYKPTVRLATRDDVPRAVRTLAAAFADYPATRHTVDPDRHIERVTELQELFLTRVGLDIGKVWVADDGAAVAVWTTPESVEAGAVFAEIGPRMAELSGSRLAAQQQMEGLLAPHRPKEPAWFLATVGVSPDHQGKGLGSAVVLPGVEAAERAGVPAFLETSAPRNLPFYERLGFTVTADVEVPEGPRTWCMTRKPGA | 2+ (refer to approximately 5%, 10%, 20%, 30%, 40% and 50% GFP positive cells) | + (refer to approximately 5%, 10%, 20%, 30%, 40% and 50% GFP positive cells) |
